For assay [1], the target named is T1, Myc- and His-tagged full-length human PTX3 (human, UniProt P26022 18-381).
T1 construct: also called full-length PTX3; Myc-tagged full-length PTX3; not shown: Myc and His tags of the pEF4/Myc-His B vector
Put plainly: dot blot: fragments on nitrocellulose, PTX3 overlay, anti-myc detection (FIG. 12A left).

In assay [2] the target is T2, Myc- and His-tagged C-terminal domain human PTX3 (animal cell expressed) (human, UniProt P26022 179-381).
T2 construct: also called C-terminal domain of PTX3; C-terminal fragment of PTX3; not shown: Myc and His tags of the pEF4/Myc-His B vector
T2 sequence: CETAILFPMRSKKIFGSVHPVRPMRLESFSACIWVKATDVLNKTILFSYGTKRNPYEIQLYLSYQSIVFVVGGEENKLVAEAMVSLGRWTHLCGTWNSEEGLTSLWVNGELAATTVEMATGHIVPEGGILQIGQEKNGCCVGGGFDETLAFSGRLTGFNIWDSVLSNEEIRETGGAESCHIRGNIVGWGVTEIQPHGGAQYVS
Described as above.

This note sets out measurements from patent publication US20150299277A1 (UNIVERSITY OF TOKYO, published 2015).

In the case of EIRRYQKSTELLIRKLPFQR [histone H3 fragment H3-6], in assay [1], the binding result was “binds”.

On to LVGLFEDTNLCAIHAKRVTI [histone H3 fragment H3-11], for which the binding result in assay [1] and in assay [2] was “binds” throughout.
